Source: US20140087995A1 (published 2014)
Numbered stars: 1 amine (or outer) side, 2 acyl side, 3 side chain; on linkers, the order of the positions; unused ones are H or OH. Bridge positions count the residues as written; N and C are the ends. Side chains are listed from the residue outwards. Ends that are not written are not given here. * marks the point of attachment. C20 diacid = O=C(O)CCCCCCCCCCCCCCCCCCC(=O)*; γGlu = O=C(O)[C@H](CCC(=O)[*:2])N[*:1]

T1: human amylin receptor (human, UniProt P30988 25-474; O60896 24-148, limits assumed)
T1 construct: whole, on cells; Calcitonin receptor plus RAMP-3 gives the amylin 3(a) receptor; membranes of Amylin 3(a)/CRE-luc cells were used; also called hAmylin-R; hAmylinR
T1 sequence (looked up) 1: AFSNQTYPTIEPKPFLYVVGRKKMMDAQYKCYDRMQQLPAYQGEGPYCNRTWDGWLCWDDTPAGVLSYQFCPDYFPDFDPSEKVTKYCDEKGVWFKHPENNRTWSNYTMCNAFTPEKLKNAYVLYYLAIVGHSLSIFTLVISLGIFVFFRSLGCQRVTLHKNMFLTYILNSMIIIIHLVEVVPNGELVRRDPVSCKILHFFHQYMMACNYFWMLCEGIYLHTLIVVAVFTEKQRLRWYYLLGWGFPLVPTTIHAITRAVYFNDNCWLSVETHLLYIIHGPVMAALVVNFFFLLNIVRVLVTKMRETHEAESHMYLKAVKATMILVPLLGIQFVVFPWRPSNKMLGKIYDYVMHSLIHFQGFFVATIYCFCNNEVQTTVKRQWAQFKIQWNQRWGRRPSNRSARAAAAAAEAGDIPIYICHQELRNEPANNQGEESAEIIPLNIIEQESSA
T1 sequence (looked up) 2: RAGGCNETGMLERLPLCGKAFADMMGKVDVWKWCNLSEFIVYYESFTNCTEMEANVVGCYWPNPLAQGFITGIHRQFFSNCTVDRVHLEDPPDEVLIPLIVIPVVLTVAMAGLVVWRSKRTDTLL


Biological target: T1, human amylin receptor
Test: SPA competition binding, displacement of 125I-rat amylin from membranes with human amylin 3(a) receptor (Assay V)
In short: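 Membranes from BHK Amylin 3(a)/CRE-luc cells (35 ng/μL final) were mixed with SPA beads and test compounds in 50 mM Hepes pH 7.4 with 1 mM CaCl2, 5 mM MgCl₂, 0.1% OA and 0.02% Tween20. Incubation ran 120 min at 25° C with shaking; IC₅₀ came from one-site competition fitting.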

Row | IC50 | Binder
1 | 0.172 nM | K([γGlu-γGlu-C20 diacid])CNTATCATQRLADFLRHSSPNFGAIPSSTNVGPETY-NH2 (disulfide 2-7; N-terminus assumed; SMILES CC[C@H](C)[C@H](NC(=O)[C@H](C)NC(=O)CNC(=O)[C@H](Cc1ccccc1)NC(=O)[C@H](CC(N)=O)NC(=O)[C@@H]1CCCN1C(=O)[C@H](CO)NC(=O)[C@H](CO)NC(=O)[C@H](Cc1c[nH]cn1)NC(=O)[C@H](CCCNC(=N)N)NC(=O)[C@H](CC(C)C)NC(=O)[C@H](Cc1ccccc1)NC(=O)[C@H](CC(=O)O)NC(=O)[C@H](C)NC(=O)[C@H](CC(C)C)NC(=O)[C@H](CCCNC(=N)N)NC(=O)[C@H](CCC(N)=O)NC(=O)[C@@H](NC(=O)[C@H](C)NC(=O)[C@@H]1CSSC[C@H](NC(=O)[C@@H](N)CCCCNC(=O)CC[C@H](NC(=O)CC[C@H](NC(=O)CCCCCCCCCCCCCCCCCCC(=O)O)C(=O)O)C(=O)O)C(=O)N[C@@H](CC(N)=O)C(=O)N[C@@H]([C@@H](C)O)C(=O)N[C@@H](C)C(=O)N[C@@H]([C@@H](C)O)C(=O)N1)[C@@H](C)O)C(=O)N1CCC[C@H]1C(=O)N[C@@H](CO)C(=O)N[C@@H](CO)C(=O)N[C@H](C(=O)N[C@@H](CC(N)=O)C(=O)N[C@H](C(=O)NCC(=O)N1CCC[C@H]1C(=O)N[C@@H](CCC(=O)O)C(=O)N[C@H](C(=O)N[C@@H](Cc1ccc(O)cc1)C(N)=O)[C@@H](C)O)C(C)C)[C@@H](C)O, also called 14D, 17R, 21P, 27P, 34P, 35E)
2 | 0.525 nM | K([γGlu-γGlu-C20 diacid])CNTATCATQRLAEFLRHSSPNFGAIPSSTNVGHETY-NH2 (disulfide 2-7; N-terminus assumed; SMILES CC[C@H](C)[C@H](NC(=O)[C@H](C)NC(=O)CNC(=O)[C@H](Cc1ccccc1)NC(=O)[C@H](CC(N)=O)NC(=O)[C@@H]1CCCN1C(=O)[C@H](CO)NC(=O)[C@H](CO)NC(=O)[C@H](Cc1c[nH]cn1)NC(=O)[C@H](CCCNC(=N)N)NC(=O)[C@H](CC(C)C)NC(=O)[C@H](Cc1ccccc1)NC(=O)[C@H](CCC(=O)O)NC(=O)[C@H](C)NC(=O)[C@H](CC(C)C)NC(=O)[C@H](CCCNC(=N)N)NC(=O)[C@H](CCC(N)=O)NC(=O)[C@@H](NC(=O)[C@H](C)NC(=O)[C@@H]1CSSC[C@H](NC(=O)[C@@H](N)CCCCNC(=O)CC[C@H](NC(=O)CC[C@H](NC(=O)CCCCCCCCCCCCCCCCCCC(=O)O)C(=O)O)C(=O)O)C(=O)N[C@@H](CC(N)=O)C(=O)N[C@@H]([C@@H](C)O)C(=O)N[C@@H](C)C(=O)N[C@@H]([C@@H](C)O)C(=O)N1)[C@@H](C)O)C(=O)N1CCC[C@H]1C(=O)N[C@@H](CO)C(=O)N[C@@H](CO)C(=O)N[C@H](C(=O)N[C@@H](CC(N)=O)C(=O)N[C@H](C(=O)NCC(=O)N[C@@H](Cc1c[nH]cn1)C(=O)N[C@@H](CCC(=O)O)C(=O)N[C@H](C(=O)N[C@@H](Cc1ccc(O)cc1)C(N)=O)[C@@H](C)O)C(C)C)[C@@H](C)O, also called 14E, 17R, 21P, 27P, 34H, 35E)
3 | 0.326 nM | K([γGlu-γGlu-C20 diacid])CNTATCATQRLAEFLRHSSPNFGAIPSSTNVGPRTY-NH2 (disulfide 2-7; N-terminus assumed; SMILES CC[C@H](C)[C@H](NC(=O)[C@H](C)NC(=O)CNC(=O)[C@H](Cc1ccccc1)NC(=O)[C@H](CC(N)=O)NC(=O)[C@@H]1CCCN1C(=O)[C@H](CO)NC(=O)[C@H](CO)NC(=O)[C@H](Cc1c[nH]cn1)NC(=O)[C@H](CCCNC(=N)N)NC(=O)[C@H](CC(C)C)NC(=O)[C@H](Cc1ccccc1)NC(=O)[C@H](CCC(=O)O)NC(=O)[C@H](C)NC(=O)[C@H](CC(C)C)NC(=O)[C@H](CCCNC(=N)N)NC(=O)[C@H](CCC(N)=O)NC(=O)[C@@H](NC(=O)[C@H](C)NC(=O)[C@@H]1CSSC[C@H](NC(=O)[C@@H](N)CCCCNC(=O)CC[C@H](NC(=O)CC[C@H](NC(=O)CCCCCCCCCCCCCCCCCCC(=O)O)C(=O)O)C(=O)O)C(=O)N[C@@H](CC(N)=O)C(=O)N[C@@H]([C@@H](C)O)C(=O)N[C@@H](C)C(=O)N[C@@H]([C@@H](C)O)C(=O)N1)[C@@H](C)O)C(=O)N1CCC[C@H]1C(=O)N[C@@H](CO)C(=O)N[C@@H](CO)C(=O)N[C@H](C(=O)N[C@@H](CC(N)=O)C(=O)N[C@H](C(=O)NCC(=O)N1CCC[C@H]1C(=O)N[C@@H](CCCNC(=N)N)C(=O)N[C@H](C(=O)N[C@@H](Cc1ccc(O)cc1)C(N)=O)[C@@H](C)O)C(C)C)[C@@H](C)O, also called 14E, 17R, 21P, 27P, 34P, 35R)
4 | 0.957 nM | K([γGlu-γGlu-C20 diacid])CNTATCATQRLAEFLRHSSPNFGAIPSSTNVGRETY-NH2 (disulfide 2-7; N-terminus assumed; SMILES CC[C@H](C)[C@H](NC(=O)[C@H](C)NC(=O)CNC(=O)[C@H](Cc1ccccc1)NC(=O)[C@H](CC(N)=O)NC(=O)[C@@H]1CCCN1C(=O)[C@H](CO)NC(=O)[C@H](CO)NC(=O)[C@H](Cc1c[nH]cn1)NC(=O)[C@H](CCCNC(=N)N)NC(=O)[C@H](CC(C)C)NC(=O)[C@H](Cc1ccccc1)NC(=O)[C@H](CCC(=O)O)NC(=O)[C@H](C)NC(=O)[C@H](CC(C)C)NC(=O)[C@H](CCCNC(=N)N)NC(=O)[C@H](CCC(N)=O)NC(=O)[C@@H](NC(=O)[C@H](C)NC(=O)[C@@H]1CSSC[C@H](NC(=O)[C@@H](N)CCCCNC(=O)CC[C@H](NC(=O)CC[C@H](NC(=O)CCCCCCCCCCCCCCCCCCC(=O)O)C(=O)O)C(=O)O)C(=O)N[C@@H](CC(N)=O)C(=O)N[C@@H]([C@@H](C)O)C(=O)N[C@@H](C)C(=O)N[C@@H]([C@@H](C)O)C(=O)N1)[C@@H](C)O)C(=O)N1CCC[C@H]1C(=O)N[C@@H](CO)C(=O)N[C@@H](CO)C(=O)N[C@H](C(=O)N[C@@H](CC(N)=O)C(=O)N[C@H](C(=O)NCC(=O)N[C@@H](CCCNC(=N)N)C(=O)N[C@@H](CCC(=O)O)C(=O)N[C@H](C(=O)N[C@@H](Cc1ccc(O)cc1)C(N)=O)[C@@H](C)O)C(C)C)[C@@H](C)O, also called 14E, 17R, 21P, 27P, 34R, 35E)
5 | 0.633 nM | K([γGlu-γGlu-C20 diacid])CNTATCATQRLAEFLRHSSPNFGAIPSSTNVGHNTY-NH2 (disulfide 2-7; N-terminus assumed; SMILES CC[C@H](C)[C@H](NC(=O)[C@H](C)NC(=O)CNC(=O)[C@H](Cc1ccccc1)NC(=O)[C@H](CC(N)=O)NC(=O)[C@@H]1CCCN1C(=O)[C@H](CO)NC(=O)[C@H](CO)NC(=O)[C@H](Cc1c[nH]cn1)NC(=O)[C@H](CCCNC(=N)N)NC(=O)[C@H](CC(C)C)NC(=O)[C@H](Cc1ccccc1)NC(=O)[C@H](CCC(=O)O)NC(=O)[C@H](C)NC(=O)[C@H](CC(C)C)NC(=O)[C@H](CCCNC(=N)N)NC(=O)[C@H](CCC(N)=O)NC(=O)[C@@H](NC(=O)[C@H](C)NC(=O)[C@@H]1CSSC[C@H](NC(=O)[C@@H](N)CCCCNC(=O)CC[C@H](NC(=O)CC[C@H](NC(=O)CCCCCCCCCCCCCCCCCCC(=O)O)C(=O)O)C(=O)O)C(=O)N[C@@H](CC(N)=O)C(=O)N[C@@H]([C@@H](C)O)C(=O)N[C@@H](C)C(=O)N[C@@H]([C@@H](C)O)C(=O)N1)[C@@H](C)O)C(=O)N1CCC[C@H]1C(=O)N[C@@H](CO)C(=O)N[C@@H](CO)C(=O)N[C@H](C(=O)N[C@@H](CC(N)=O)C(=O)N[C@H](C(=O)NCC(=O)N[C@@H](Cc1c[nH]cn1)C(=O)N[C@@H](CC(N)=O)C(=O)N[C@H](C(=O)N[C@@H](Cc1ccc(O)cc1)C(N)=O)[C@@H](C)O)C(C)C)[C@@H](C)O, also called 14E, 17R, 21P, 27P, 34H)
6 | 0.75 nM | K([γGlu-γGlu-C20 diacid])CNTATCATQRLAEFLRHSSPNFGAIPSSTNVGRNTY-NH2 (disulfide 2-7; N-terminus assumed; SMILES CC[C@H](C)[C@H](NC(=O)[C@H](C)NC(=O)CNC(=O)[C@H](Cc1ccccc1)NC(=O)[C@H](CC(N)=O)NC(=O)[C@@H]1CCCN1C(=O)[C@H](CO)NC(=O)[C@H](CO)NC(=O)[C@H](Cc1c[nH]cn1)NC(=O)[C@H](CCCNC(=N)N)NC(=O)[C@H](CC(C)C)NC(=O)[C@H](Cc1ccccc1)NC(=O)[C@H](CCC(=O)O)NC(=O)[C@H](C)NC(=O)[C@H](CC(C)C)NC(=O)[C@H](CCCNC(=N)N)NC(=O)[C@H](CCC(N)=O)NC(=O)[C@@H](NC(=O)[C@H](C)NC(=O)[C@@H]1CSSC[C@H](NC(=O)[C@@H](N)CCCCNC(=O)CC[C@H](NC(=O)CC[C@H](NC(=O)CCCCCCCCCCCCCCCCCCC(=O)O)C(=O)O)C(=O)O)C(=O)N[C@@H](CC(N)=O)C(=O)N[C@@H]([C@@H](C)O)C(=O)N[C@@H](C)C(=O)N[C@@H]([C@@H](C)O)C(=O)N1)[C@@H](C)O)C(=O)N1CCC[C@H]1C(=O)N[C@@H](CO)C(=O)N[C@@H](CO)C(=O)N[C@H](C(=O)N[C@@H](CC(N)=O)C(=O)N[C@H](C(=O)NCC(=O)N[C@@H](CCCNC(=N)N)C(=O)N[C@@H](CC(N)=O)C(=O)N[C@H](C(=O)N[C@@H](Cc1ccc(O)cc1)C(N)=O)[C@@H](C)O)C(C)C)[C@@H](C)O, also called 14E, 17R, 21P, 27P, 34R)
